Each block holds one binder with its values, some of them ahead of it.
Assays:
[1] = molecular target: T1, human AXL (full length, on cells) (human (Homo sapiens), UniProt P30530 26-894); test: flow cytometry, HEK-293F cells transfected with full length human AXL, 4-fold dilutions of antibody, PE-anti-human IgG F(ab')2
T1 construct: Used for transfected HEK293 cells and for AXL-positive A431 cells (endogenous AXL); also called hsAXL; Homo sapiens AXL
T1 sequence: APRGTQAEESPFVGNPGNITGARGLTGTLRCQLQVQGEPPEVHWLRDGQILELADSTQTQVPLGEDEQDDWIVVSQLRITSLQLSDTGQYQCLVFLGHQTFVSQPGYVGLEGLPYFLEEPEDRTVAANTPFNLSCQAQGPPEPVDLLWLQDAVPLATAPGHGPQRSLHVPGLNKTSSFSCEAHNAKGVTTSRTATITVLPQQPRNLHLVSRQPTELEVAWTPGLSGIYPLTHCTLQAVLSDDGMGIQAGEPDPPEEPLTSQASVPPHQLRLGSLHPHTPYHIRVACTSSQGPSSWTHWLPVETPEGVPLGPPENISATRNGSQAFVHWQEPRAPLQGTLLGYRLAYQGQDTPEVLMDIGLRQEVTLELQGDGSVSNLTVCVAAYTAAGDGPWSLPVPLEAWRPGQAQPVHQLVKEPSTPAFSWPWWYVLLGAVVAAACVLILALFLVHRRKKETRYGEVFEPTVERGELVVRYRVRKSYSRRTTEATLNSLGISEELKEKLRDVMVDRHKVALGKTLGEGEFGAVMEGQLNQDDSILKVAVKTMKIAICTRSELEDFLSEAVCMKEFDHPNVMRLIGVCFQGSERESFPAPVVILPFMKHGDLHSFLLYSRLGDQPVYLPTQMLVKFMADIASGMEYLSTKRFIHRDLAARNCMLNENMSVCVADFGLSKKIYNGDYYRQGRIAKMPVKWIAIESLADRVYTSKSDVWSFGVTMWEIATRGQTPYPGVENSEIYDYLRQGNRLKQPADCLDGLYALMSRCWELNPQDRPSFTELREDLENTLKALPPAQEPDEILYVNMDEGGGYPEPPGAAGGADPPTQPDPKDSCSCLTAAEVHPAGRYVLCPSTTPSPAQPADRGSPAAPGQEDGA

[2] = molecular target: T1, human AXL (full length, on cells); test: flow cytometry, HEK293T cells transiently transfected with full-length human AXL, 4-fold dilutions, PE-anti-human IgG F(ab')2
Protocol: Binding curves were analyzed using non-linear regression (sigmoidal dose-response with variable slope) using GraphPad Prism V5.04 software (GraphPad Software, San Diego, Calif., USA).

EC50 (read off the curve) [1]: ~0.2 mg/L
B1: IgG1-AXL-171 (antibody, V domains shown)
VH: EVQLLESGGGLVQPGGSLRLSCAASGFTFSSYAMSWVRQAPGKGLEWVSDISVSGGSTYYADSVKGRFTISRDNSKNTLYLQMNSLRAEDTAVYYCAKEGYIWFGESLSYAFDIWGQGTMVTVSS
VL: not shown
notes: Expressed as IgG1,kappa

EC50 (read off the curve) [1]: ~0.2 mg/L
B2: IgG1-AXL-107 (antibody, V domains shown)
VH: EVQLLESGGGLVQPGGSLRLSCAASGFTFSSYAMNWVRQAPGKGLEWVSTTSGSGASTYYADSVKGRFTISRDNSKNTLYLQMNSLRAEDTAVYYCAKIWIAFDIWGQGTMVTVSS
VL: not shown
notes: Expressed as IgG1,kappa

EC50 (read off the curve) [2]: ~0.2 mg/L
B3: IgG1-AXL-183-A-vcDuo3 (other)
heavy chain: QVQLQQWGAGLLKPSETLSLTCAVYGGSFSGYYWSWIRQPPGKGLEWIGEINQSGSTNYNPSLKSRVTISVDTSKNQFSLKLSSVTAADTSVYYCASGNWDHFFDYWGQGTLVTVSS
light chain: DIQMTQSPSSVSASVGDRVTITCRASQGISSWLAWYQHKPGKAPKLLIYATSSLQSGVTSRFSGSGSGTDFTLTISSLQPEDFATYYCQQAKSFPWTFGQGTKVEIK
notes: The sheet writes '-A-vcDuo3', the text '-vcDuo3'; also called IgG1-AXL-183-vcDuo3; IgG1-AXL-183-vcDuostatin3
